Columns and labels:
[1] = substrate: N=C(N)NCCC[C@H](N)C(=O)O; assay: L-amino acid oxidase (LAAO) enzyme-coupled assay of purified escapin; format: biochemical, Aplysia californica; conditions: other: horseradish peroxidase/o-dianisidine coupled assay, 0.1 M Tris-HCl pH 7.6, room temperature, O.D. 436 nm, Lineweaver-Burk plot
Excerpt: (§1) Animals. Sea hares, Aplysia californica, were collected in California or provided by the NIH National Resource for Aplysia Facility (http://www.rsmas.miami.edu/groups/sea-hares/). They were maintained in aquaria containing recirculating, filtered, and aerated artificial sea water (Instant Ocean™: Aquarium Systems), and fed red alga (Gracilaria ferox). Ink gland processing. The ink glands were surgically removed from sea hares, gently squeezed in a Petri dish with the blunt end of a scalpel handle to release most of the ink secretion from the individual vesicles contained in the gland. The secretion was then pipetted to a microfuge tube and frozen at −80° C. until needed. Opaline gland processing. The opaline glands were surgically removed from sea hares, gently blotted dry on a Kimwipe® to remove seawater (since water causes opaline secretion to polymerize) and transferred to an ultracentrifuge tube. This was centrifuged at 30,000 g for 30 min at 4° C. (Beckman Optima TLX Ultracentrifuge). The pure opaline was then pipetted away from the gland tissue, transferred to a microfuge tube, and frozen at −80° C. until needed. Purification of proteins from purple ink. Proteins were isolated and purified using an ÄKTA 100 Automated FPLC (Amersham Pharmacia Biotech). A preparative grade Hi-Load Superdex 200 16/60 column (Pharmacia) or an in-house-packed Sephacryl 300 HR 26/60 column was used for initial size separation with fractions collected in an automated fraction collector. Fractions identified to have activity by bacterial assay were concentrated using a Biomax 5K NMWL membrane Ultrafree Centrifugal Filter Device (Millipore). Active fractions were further purified on a cation exchange Mono S column, and fractions were collected, assayed, concentrated, and frozen at −80° C. One purified protein of interest was named “escapin” and was bright yellow. Escapin's concentration was determined by Bradford assay using bovine serum albumen (BSA) as a standard. The molecular mass of purified escapin was determined by gel filtration using a Superose-6 10/30 column (Amersham Pharmacia Biotech) eluted with 50 mM potassium phosphate buffer (pH 7.2) containing 150 mM KCl at a flow rate of 0.5 ml/min. The molecular weight markers were BSA (67 kDa), ovalbumen (43 kDa), and chymotrypsinogen A (25 kDa). Protein sequencing. Aplysia californica ink was analyzed for protein content using sodium dodecyl sulfate polyacrylamide gel electrophoresis (SDS-PAGE) on 12% gels. […] This band was blotted from the polyacrylamide gel to a PVDF membrane using CAPS transfer buffer and determined by protein microsequencing and proteomic mass spectrometry (University of Massachusetts Medical School Proteomic Mass Spectrometry Lab: http://www.umassmed.edu/proteomic/leszyk). […]

[2] = substrate: NCCCC[C@H](N)C(=O)O; assay: as above; format: biochemical, Aplysia californica; conditions: other: horseradish peroxidase/o-dianisidine coupled assay, 0.1 M Tris-HCl pH 7.6, room temperature, O.D. 436 nm, Lineweaver-Burk plot
Excerpt: as §1

B1: Aplysia californica escapin (L-amino acid oxidase), wild type purified from ink, SEQ ID NO:1 (Aplysia californica) (protein)
chain: DGVCRNRRQCNKEVCGSSYDVAIVGAGPGGANSAYMLRESGLDIAVFEYSDRVGGRLFTYQLPNTPDVNLEIGGMRFIEGAMHRLWKVISELGLTPKVFKEGFGKEGRQRFYLRGQSLTKKQVKSGDVPYDLSPEEKANQGRLVEYYLEKLTGLQLNGGPLKREVALKLTVPDGRFLYDLTFDEALDLVASPEGKEFARDTHVFTSEVTLDASAISIFDDHLGEDYYGSEIYTLEEGMSSVPQGLLQTFLDAAKSNEFFPNNHLKALRRRTNGQYVLYFEPTTSKDGQTTINYLEPLKVVCAQRVILAMPVYALRQLDWSQLRNDRATQAYRAVRPMPASKVFMTFDQPWWLQNERKSWVTKSDALFSQMYDWQKSEASGDYILIASYADGLKAQYLRELKNQGEDIPGSDPGYNQVTVPLKDAILEHLTEAYGVERDSIPEPVTAASQFWTDYPFGCGWITWRAGYHFDDVISTMRRPSLKDEVYVVGSDYSWGLISSWIEGALETSENVINDYFL
notes: a signal peptide cleavage site between 18 and 19 amino acid residues was predicted by SignalIP; from tissue; host or cells: ink (ink gland secretion) of Aplysia californica
[1]
  Km: 25 µM
  Vmax: 1.56 µM/s
[2]
  Km: 31 µM
  Vmax: 1.92 µM/s

Reference: patent US7329517B2, “Escapin protein, a broadly antimicrobial compound from ink of the sea hare Aplysia californica, and uses thereof” (priority 2004, dated 2008)
